Data from paper PMC11143374, “Conformations of Bcs1L undergoing ATP hydrolysis suggest a concerted translocation mechanism for folded iron-sulfur protein substrate” (Nature Communications, 2024).

Key:
[1] = target: AAA domain of mBcs1L (ΔNmBcs1L, residues 151-420) (mouse) (UniProt Q9CZP5); assay: native gel or EMSA; BN-PAGE of ΔNmBcs1L with AMP-PNP or ATPγS
[2] = target: T1, mouse Bcs1L (mBcs1L), wild type, hexahistidine-tagged (mouse, UniProt Q9CZP5 1-418); assay: cell-based or functional assay
T1 sequence (looked up): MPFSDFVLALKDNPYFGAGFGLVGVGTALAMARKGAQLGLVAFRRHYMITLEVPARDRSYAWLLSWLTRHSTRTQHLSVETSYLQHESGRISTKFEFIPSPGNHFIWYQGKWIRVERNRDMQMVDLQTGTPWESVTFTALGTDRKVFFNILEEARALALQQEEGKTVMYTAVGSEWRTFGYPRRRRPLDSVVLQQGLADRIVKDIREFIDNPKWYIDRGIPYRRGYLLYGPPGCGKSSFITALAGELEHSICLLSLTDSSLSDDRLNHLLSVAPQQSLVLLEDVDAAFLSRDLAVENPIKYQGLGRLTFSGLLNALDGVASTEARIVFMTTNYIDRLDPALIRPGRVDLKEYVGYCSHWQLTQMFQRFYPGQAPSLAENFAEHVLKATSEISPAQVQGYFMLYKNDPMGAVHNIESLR

Molecule	stoichiometry N [1]	ATPase activity of mBcs1L (malachite green, 37 °C, 15 min) at different ISP-ED:mBcs1L heptamer molar ratios; maximal stimulation at a ratio of 3-4, no further change at higher ratios [2] [% stimulation]
AAA domain of mBcs1L (ΔNmBcs1L, residues 151-420) (from UniProt Q9CZP5 151-418) (domain or fragment)	7	–
extrinsic domain of the Rieske iron-sulfur protein (ISP-ED), bovine (domain or fragment, UniProt P13272 146-274, looked up) VLAMSKIEIKLSDIPEGKNMAFKWRGKPLFVRHRTKKEIDQEAAVEVSQLRDPQHDLERVKKPEWVILIGVCTHLGCVPIANAGDFGGYYCPCHGSHYDASGRIRKGPAPLNLEVPSYEFTSDDMVIVG	–	~50
